Results on three molecules are retold here after paper PMC10470053, “Diverse p120RasGAP interactions with doubly phosphorylated partners EphB4, p190RhoGAP, and Dok1” (The Journal of Biological Chemistry, 2023).

Settings in all cases: both partners purified
Assay [1] concerns the target T1, RasGAP^232 (p120RasGAP N-SH2, SH3 and C-SH2 domains, residues 174-444) (human, UniProt P20936 174-444, C236 | C261 | C372 | C402).
T1 construct: p120RasGAP (RASA1), human, UniProt P20936, residues 174-444 (N-SH2, SH3, C-SH2), with four cysteine to serine mutations; also called WT RasGAP^232; apo RasGAP^232; source: E. coli Rosetta (DE3), purified (Ni-NTA, TEV cleavage, anion exchange, SEC)
T1 sequence (looked up): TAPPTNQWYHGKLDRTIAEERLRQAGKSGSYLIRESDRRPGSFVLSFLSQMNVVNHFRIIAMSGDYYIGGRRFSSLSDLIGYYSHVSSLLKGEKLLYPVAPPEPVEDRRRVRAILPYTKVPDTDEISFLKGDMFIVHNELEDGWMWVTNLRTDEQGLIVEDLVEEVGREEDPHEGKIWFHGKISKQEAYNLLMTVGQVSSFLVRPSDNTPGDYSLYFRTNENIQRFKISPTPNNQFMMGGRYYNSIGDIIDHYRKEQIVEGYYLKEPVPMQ
Put plainly: ITC; protein in the 190 ul sample cell, titrated 20 times with 2.5 ul peptide from the syringe; 20 mM Tris pH 8, 250 mM NaCl; Nano ITC (TA Instruments); independent binding model.

In assay [2] the target is T2, RasGAP^2(mut)32 (RasGAP^232 with R207A in the N-SH2 domain) (human, UniProt P20936 174-444, R207 to alanine | C236 | C261 | C372 | C402).
T2 construct: p120RasGAP (RASA1), human, UniProt P20936, residues 174-444, mutant of RasGAP^232 in the N-SH2 domain; also called N-SH2 mutant; source: E. coli Rosetta (DE3), purified (same protocol as the WT: Ni-NTA, TEV cleavage, anion exchange, SEC)
T2 sequence (looked up): T1 sequence (looked up) with R34A
The assay is described as above.

In assay [3] the target is T3, RasGAP^232(mut) (RasGAP^232 with R398E/K400E in the C-SH2 domain) (human, UniProt P20936 174-444, R398E | K400E | C236 | C261 | C372 | C402).
T3 construct: p120RasGAP (RASA1), human, UniProt P20936, residues 174-444, mutant of RasGAP^232 in the C-SH2 domain; also called C-SH2 mutant; source: E. coli Rosetta (DE3), purified (same protocol as the WT: Ni-NTA, TEV cleavage, anion exchange, SEC)
T3 sequence (looked up): T1 sequence (looked up) with R225E, K227E
The description is as above.

The target of assay [4] is T4, RasGAP^2(mut)32 (RasGAP^232 with R207A in the N-SH2 domain) (human, UniProt P20936 174-444, C236S | C261S | C372S | C402S | R207 to alanine).
T4 construct: p120RasGAP, human, UniProt P20936, residues 174-444; Made by site-directed mutagenesis of RasGAP^232, which holds the four cysteine to serine mutations; also called N-SH2 mutant; source: E. coli Rosetta (DE3), purified (same protocol as the WT counterpart); not shown: His6, N-terminal, cleaved
T4 sequence (looked up): T1 sequence (looked up) with R34A
Put plainly: ITC; RasGAP^232 protein (WT or mutant) in the 190 µl sample cell, peptide in the syringe, 20 injections of 2.5 µl; 20 mM Tris pH 8, 250 mM NaCl; Nano ITC (TA Instruments); blank (constant) and independent models; values of single trials, averages and stdev.

Assay [5] concerns the target T5, RasGAP^232(mut) (RasGAP^232 with R398E/K400E in the C-SH2 domain) (human, UniProt P20936 174-444, C236S | C261S | C372S | C402S | R398E | K400E).
T5 construct: p120RasGAP, human, UniProt P20936, residues 174-444; Made by site-directed mutagenesis of RasGAP^232, which holds the four cysteine to serine mutations; also called C-SH2 mutant; source: E. coli Rosetta (DE3), purified (same protocol as the WT counterpart); not shown: His6, N-terminal, cleaved
T5 sequence (looked up): T1 sequence (looked up) with R225E, K227E
The description is as above.

In assay [6] the target is T6, RasGAP^232 (p120RasGAP SH2-SH3-SH2 region, residues 174-444) (human, C236S (stands in the printed letters) | C261S (stands in the printed letters) | …).
T6 construct: p120RasGAP, human, UniProt P20936, residues 174-444 (N-SH2, SH3, C-SH2) with four cysteine to serine mutations; the methods say that the hexahistidine tag was cut off with TEV, so G-S of the printed stretch probably stay before T174; also called WT RasGAP^232; source: E. coli Rosetta (DE3), purified (Ni-NTA, TEV cleavage, anion exchange, SEC); not shown: His6, N-terminal, cleaved
T6 chain: T1 sequence (looked up)
The description is as above.

Where a chain is given by its changes, count along the chain named. Several values for one entry are separate records, joined by “and”; a condition that tells them apart may be missing. Identical values can stand only once. Square brackets hold non-standard residues; d marks the D form. pY = N[C@@H](Cc1ccc(OP(=O)(O)O)cc1)C(=O)O

B1: doubly phosphorylated EphB4 peptide (residues 586-602, pY590 and pY596) (peptide)
peptide: Ac-GTKV[pY]IDPFT[pY]EDPNEA-NH2
SMILES: CC[C@H](C)[C@H](NC(=O)[C@H](Cc1ccc(OP(=O)(O)O)cc1)NC(=O)[C@@H](NC(=O)[C@H](CCCCN)NC(=O)[C@@H](NC(=O)CNC(C)=O)[C@@H](C)O)C(C)C)C(=O)N[C@@H](CC(=O)O)C(=O)N1CCC[C@H]1C(=O)N[C@@H](Cc1ccccc1)C(=O)N[C@H](C(=O)N[C@@H](Cc1ccc(OP(=O)(O)O)cc1)C(=O)N[C@@H](CCC(=O)O)C(=O)N[C@@H](CC(=O)O)C(=O)N1CCC[C@H]1C(=O)N[C@@H](CC(N)=O)C(=O)N[C@@H](CCC(=O)O)C(=O)N[C@@H](C)C(N)=O)[C@@H](C)O
notes: EphB4 juxtamembrane region, UniProt P54760, residues 586-602; also called pYpY EphB4; pYpYEphB4; source: synthetic peptide, bought: GenScript
With B1, in assay [1], the Kd amounted to 2000 ± 700 nM, the dH is -5.74 ± 0.717 kcal/mol and the “stoichiometry N” value was determined as 1 ± 0.1. In assay [2], the dissociation constant Kd was determined as 40000 ± 20000 nM, the dH was -7.89 ± 1.43 kcal/mol and the “stoichiometry N” value was 0.9 ± 0.2. In assay [3], binding was put at a Kd of 1000 ± 300 nM, the dH was -5.98 ± 0.239 kcal/mol and the “stoichiometry N” value was 0.75 ± 0.02.

B2: doubly phosphorylated EphB4 peptide (residues 586-602) (peptide)
peptide: Ac-GTKV[pY]IDPFT[pY]EDPNEA-NH2
SMILES: CC[C@H](C)[C@H](NC(=O)[C@H](Cc1ccc(OP(=O)(O)O)cc1)NC(=O)[C@@H](NC(=O)[C@H](CCCCN)NC(=O)[C@@H](NC(=O)CNC(C)=O)[C@@H](C)O)C(C)C)C(=O)N[C@@H](CC(=O)O)C(=O)N1CCC[C@H]1C(=O)N[C@@H](Cc1ccccc1)C(=O)N[C@H](C(=O)N[C@@H](Cc1ccc(OP(=O)(O)O)cc1)C(=O)N[C@@H](CCC(=O)O)C(=O)N[C@@H](CC(=O)O)C(=O)N1CCC[C@H]1C(=O)N[C@@H](CC(N)=O)C(=O)N[C@@H](CCC(=O)O)C(=O)N[C@@H](C)C(N)=O)[C@@H](C)O
notes: EphB4, UniProt P54760, juxtamembrane residues 586-602; also called pYpY EphB4; pYpYEphB4; source: synthetic peptide, bought: GenScript
Turning to B2, in assay [4], the Ka was 40000 M⁻¹ and 30000 M⁻¹ and 20000 M⁻¹; the Kd is 25000 nM and 32000 nM and 60000 nM and 38000 nM; the “stoichiometry N” value was 0.7 and 1 and 0.9 and 1.2. Besides, in assay [5], the Ka is 900000 M⁻¹ and 700000 M⁻¹ and 1e+06 M⁻¹; the Kd is 1100 nM and 1500 nM and 1000 nM and 800 nM; the “stoichiometry N” value is 0.8 and 0.7. Further, in assay [6], the Kd was 1300 nM and 1500 nM and 2400 nM and 2700 nM; the “stoichiometry N” value was 0.9 and 1 and 1.1.

B3: doubly phosphorylated Dok1 peptide (residues 291-322) (peptide)
peptide: Ac-SPPAL[pY]AEPLDSLRIAPCPSQDSL[pY]SDPLDST-NH2
SMILES: CC[C@H](C)[C@H](NC(=O)[C@H](CCCNC(=N)N)NC(=O)[C@H](CC(C)C)NC(=O)[C@H](CO)NC(=O)[C@H](CC(=O)O)NC(=O)[C@H](CC(C)C)NC(=O)[C@@H]1CCCN1C(=O)[C@H](CCC(=O)O)NC(=O)[C@H](C)NC(=O)[C@H](Cc1ccc(OP(=O)(O)O)cc1)NC(=O)[C@H](CC(C)C)NC(=O)[C@H](C)NC(=O)[C@@H]1CCCN1C(=O)[C@@H]1CCCN1C(=O)[C@H](CO)NC(C)=O)C(=O)N[C@@H](C)C(=O)N1CCC[C@H]1C(=O)N[C@@H](CS)C(=O)N1CCC[C@H]1C(=O)N[C@@H](CO)C(=O)N[C@@H](CCC(N)=O)C(=O)N[C@@H](CC(=O)O)C(=O)N[C@@H](CO)C(=O)N[C@@H](CC(C)C)C(=O)N[C@@H](Cc1ccc(OP(=O)(O)O)cc1)C(=O)N[C@@H](CO)C(=O)N[C@@H](CC(=O)O)C(=O)N1CCC[C@H]1C(=O)N[C@@H](CC(C)C)C(=O)N[C@@H](CC(=O)O)C(=O)N[C@@H](CO)C(=O)N[C@H](C(N)=O)[C@@H](C)O
notes: Dok1, UniProt Q99704, residues 291-322; also called pYpY Dok1; pYpYDok1; source: synthetic peptide, bought: GenScript
For the molecule B3, in assay [6], the Ka is 6.3e+07 M⁻¹ and 2.1e+07 M⁻¹ and 4.3e+07 M⁻¹ and 4e+07 M⁻¹; the dissociation constant Kd was 16 nM and 47 nM and 23 nM; the “stoichiometry N” value is 0.9 and 0.8 and 0.7.
